The record followed here is patent publication US20050260634A1.

The target in assay [1] is c-Myc (UniProt P01106). The assay is described as follows: flow cytometry, fixed and permeabilized JEG3 cells, negative control. In general terms: A flow cytometer gives signals particle by particle.
Assay [2] has as its target c-Myc (UniProt P01106). The assay is described as follows: flow cytometry, fixed and permeabilized HCT15 cells, negative control.
Assay [3] deals with c-Myc (UniProt P01106). Briefly: flow cytometry, fixed and permeabilized HCT116 cells, negative control (row shifted one column to the left).

Chain of UniProt P01106 (P01106 whole entry): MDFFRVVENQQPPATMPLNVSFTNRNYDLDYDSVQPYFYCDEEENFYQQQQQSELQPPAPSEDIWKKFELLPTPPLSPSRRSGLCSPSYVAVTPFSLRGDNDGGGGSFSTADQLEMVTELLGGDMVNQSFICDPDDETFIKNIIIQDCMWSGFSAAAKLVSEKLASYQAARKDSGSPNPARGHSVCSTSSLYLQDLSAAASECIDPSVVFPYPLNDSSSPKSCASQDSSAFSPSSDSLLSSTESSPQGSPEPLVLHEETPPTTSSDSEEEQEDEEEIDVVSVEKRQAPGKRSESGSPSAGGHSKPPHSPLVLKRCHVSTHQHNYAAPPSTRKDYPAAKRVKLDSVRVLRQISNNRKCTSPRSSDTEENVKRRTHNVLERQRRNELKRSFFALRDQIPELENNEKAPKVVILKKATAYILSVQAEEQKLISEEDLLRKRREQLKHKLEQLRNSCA

Turning to “non-immunized rabbit immunoglobulins (antibody)”, the percentage of positive cells above the flow cytometry threshold with c-Myc [1] is 1.1%; with c-Myc [2] it was 1.6%; with c-Myc [3] it was 1.5%.
